Results on eight substances are retold here after publication PMC12712897.

pKd: −log10 of the molar value.

Experiment [1] concerns the target type I interleukin-1 receptor (UniProt P14778). Description: SPR; IL-1R1 captured on a CM5 chip via a His Capture Kit; various concentrations of IL-1Ra variants and IL-1β flowed as analytes; Biacore T200. (In general: Surface plasmon resonance follows binding to a sensor surface in real time, without labels.)
For experiment [2] the target is unchanged. Description: MST; fluorescently labeled IL-1R1 titrated with serially diluted IL-1Ra variants and IL-1β; Monolith NT.115-pico.
Experiment [3] shares this target.
For experiment [4] the target is unchanged. This is another data set of the same source.

Sequence of UniProt P14778 (P14778 18-336): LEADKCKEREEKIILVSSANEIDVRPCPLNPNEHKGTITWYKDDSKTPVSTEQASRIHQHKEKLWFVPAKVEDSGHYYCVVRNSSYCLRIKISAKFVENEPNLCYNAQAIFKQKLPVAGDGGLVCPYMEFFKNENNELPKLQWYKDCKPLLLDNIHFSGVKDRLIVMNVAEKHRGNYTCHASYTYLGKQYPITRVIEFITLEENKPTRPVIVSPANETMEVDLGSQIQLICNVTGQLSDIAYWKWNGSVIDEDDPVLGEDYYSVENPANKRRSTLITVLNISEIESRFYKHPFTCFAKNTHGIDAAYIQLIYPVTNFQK

By pKd is commonly meant the Kd on a negative log10 scale, so that one unit is a factor of ten. As for hIL-1Ra E127C (natural protein), the negative-log Kd (pKd) was 9.40 in experiment [1] and 8.12 in experiment [2].
For hIL-1Ra E127D (natural protein), in that order: 8.46 and 7.39.
For hIL-1Ra E127H (natural protein), in that order: 9.59 and 8.34.
Turning to hIL-1Ra E127K (natural protein), in experiment [3], the reduction of IL-1β mRNA in HMC-3 cells (IL-1β 1 ng/ml + hIL-1Ra 25 ng/ml, 24 h; blocks IL-1β acting on IL-1R1) compared with RD hIL-1Ra WT turned out to be 35% and the reduction of IL-1β mRNA in HMC-3 cells (IL-1β 1 ng/ml + hIL-1Ra 25 ng/ml, 24 h; blocks IL-1β acting on IL-1R1) compared with iPT hIL-1Ra WT worked out at 32%. Further, in experiment [1], the pKd is 9.39. Besides, the pKd in experiment [2] is 8.26.
Turning to hIL-1Ra E127N (natural protein), the figures for the pKd in experiment [1] and in experiment [2] were 9.55 and 8.22, respectively.
Take hIL-1Ra E127Q (natural protein): in experiment [4], the reduction of IL-6 mRNA in HMC-3 cells (IL-1β 1 ng/ml + hIL-1Ra 25 ng/ml, 24 h; blocks IL-1β acting on IL-1R1) compared with RD hIL-1Ra WT came to 53% and the reduction of IL-6 mRNA in HMC-3 cells (IL-1β 1 ng/ml + hIL-1Ra 25 ng/ml, 24 h; blocks IL-1β acting on IL-1R1) compared with iPT hIL-1Ra WT is 49%. This substance gave a pKd in experiment [1] of 9.55. In experiment [2], the negative logarithm of the Kd (pKd) was 8.42.
As for hIL-1Ra E127S (natural protein), the figures for the pKd in experiment [1] and in experiment [2] were 9.61 and 8.61, respectively.
For hIL-1Ra E127V (natural protein), in that order: 9.59 and 8.34.
